These results are taken from patent publication US20250223353A1 (BIOTHEUS, published 2025).

Assay [1] addresses T1, human PVRIG-his protein (human, UniProt Q6DKI7 41-171).
T1 construct: also called PVRIG-his antigen; human PVRIG protein; not shown: his tag
T1 sequence: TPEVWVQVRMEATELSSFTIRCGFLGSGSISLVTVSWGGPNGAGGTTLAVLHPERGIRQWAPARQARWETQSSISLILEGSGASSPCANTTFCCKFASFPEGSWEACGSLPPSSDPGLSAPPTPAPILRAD
In words: BLI (ForteBio), IgG on AHQ sensor, 100 nM PVRIG-his in solution, monovalent, 1:1 model. As to the method: (§1) Biofilm layer optical interference technology (ForteBio) was used to determine the binding and dissociation rate constant (KD) values of the antibodies and their variants or Fab fragments obtained in Example 1 to human, cynomolgus monkey and mouse PVRIG. ForteBio affinity measurement was performed according to existing methods (Este, P et al., High throughput solution-based measurement of antibody-antigen affinity and epitope binning. Mabs, 2013.5 (2): p270-8).
The antibody-loaded sensor was incubated in 100 nM PVRIG-his antigen to the plateau phase, and then the sensor was transferred to an analysis buffer and incubated for at least 2 minutes for measuring dissociation rate. The kinetic analysis was performed using a 1:1 binding model.

The target of assay [2] is T2, cynomolgus monkey PVRIG-Fc protein (cynomolgus monkey, UniProt Q6DKI7 41-171 (human entry), limits assumed).
T2 construct: also called cynomolgus PVRIG-Fc protein; not shown: Fc part
T2 chain: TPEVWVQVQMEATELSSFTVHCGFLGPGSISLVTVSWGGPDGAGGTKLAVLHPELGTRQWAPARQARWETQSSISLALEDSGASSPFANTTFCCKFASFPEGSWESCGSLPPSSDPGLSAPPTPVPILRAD
Kind of assay: BLI (ForteBio), IgG on AHQ sensor, 100 nM PVRIG-Fc in solution, bivalent, 1:1 model. The procedure: as §1
(§2) The antibody-loaded sensor was continued to be loaded in a high concentration of irrelevant intact antibody for 10 min, saturating the Fc-binding site on the AHQ sensor. The saturated sensor was incubated in 100 nM PVRIG-Fc antigens to the plateau phase, and then the sensor was transferred to an analysis buffer and incubated for at least 2 minutes for measuring dissociation rate. The kinetic analysis was performed using a 1:1 binding model.

Assay [3] has as its target T3, mouse PVRIG-Fc protein (mouse).
T3 construct: not shown: Fc part
T3 chain: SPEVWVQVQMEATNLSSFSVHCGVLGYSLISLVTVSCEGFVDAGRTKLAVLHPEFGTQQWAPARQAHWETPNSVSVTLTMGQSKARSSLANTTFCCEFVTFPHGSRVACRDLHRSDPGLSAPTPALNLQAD
Kind of assay: BLI (ForteBio), IgG on AHQ sensor, 100 nM PVRIG-Fc in solution, bivalent.

For assay [4], the target named is T4, human PVRIG on the cell surface (human, UniProt Q6DKI7 41-326).
T4 construct: whole, on cells; also called CHO-huPVRIG cells; human PVRIG protein overexpressed on the surface of CHO cells
T4 sequence (looked up): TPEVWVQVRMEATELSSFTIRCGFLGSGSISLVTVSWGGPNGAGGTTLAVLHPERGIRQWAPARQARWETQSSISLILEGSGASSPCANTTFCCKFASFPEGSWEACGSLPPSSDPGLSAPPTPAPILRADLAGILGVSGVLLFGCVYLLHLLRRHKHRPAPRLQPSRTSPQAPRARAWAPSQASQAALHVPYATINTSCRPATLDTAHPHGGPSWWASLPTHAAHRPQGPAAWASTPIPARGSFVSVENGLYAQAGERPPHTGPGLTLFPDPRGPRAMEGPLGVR
In words: flow cytometry on CHO-huPVRIG cells. The procedure: (§3) The overexpressing cells were expanded and adjusted to an appropriate cell density, and added to a 96-well flow cytometry plate. After centrifugation, the cells were added with a gradiently diluted sample to be tested, and incubated at 4° C. for 30 minutes. The cells were washed twice with PBS, and added with a fluorescent secondary antibody correspondingly diluted to an appropriate concentration, then incubated at 4° C. for 30 minutes, and washed twice with PBS. Cells were resuspended with PBS, and detected on a CytoFlex flow cytometer, and the corresponding MFI was calculated. Graphpad software was used for graphical analysis to obtain EC50 values.

For assay [5], the target named is T5, cynomolgus PVRIG overexpressed on CHO cells (cynomolgus, UniProt A0A2K5WVV8 1-322).
T5 construct: whole, on cells; also called CHO-cynoPVRIG cells
T5 sequence: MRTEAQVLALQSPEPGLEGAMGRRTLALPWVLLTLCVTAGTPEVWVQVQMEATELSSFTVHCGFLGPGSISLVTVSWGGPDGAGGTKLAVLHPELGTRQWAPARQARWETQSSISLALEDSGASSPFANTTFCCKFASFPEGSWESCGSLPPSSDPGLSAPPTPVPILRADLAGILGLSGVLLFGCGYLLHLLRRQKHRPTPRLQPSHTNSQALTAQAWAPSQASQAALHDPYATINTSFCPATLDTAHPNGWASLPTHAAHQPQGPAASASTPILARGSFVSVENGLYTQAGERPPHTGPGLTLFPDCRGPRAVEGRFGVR
In words: flow cytometry on CHO-cynoPVRIG cells. As to the method:
as §3

Assay [6] deals with T6, human PVRIG protein with mouse IgG2a Fc tag (human, UniProt Q6DKI7 41-171, limits assumed).
T6 construct: not shown: mouse IgG2a Fc tag
T6 sequence (looked up): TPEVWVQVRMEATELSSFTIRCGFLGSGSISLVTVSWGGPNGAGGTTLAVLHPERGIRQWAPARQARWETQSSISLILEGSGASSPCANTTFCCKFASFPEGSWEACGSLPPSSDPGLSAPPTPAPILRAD
In words: flow cytometry competition: human PVRIG-mouse IgG2a Fc (1 ug/mL) binding to CHO-huCD112 cells. As to the method:
Specifically, CHO cells overexpressing human CD112 (CHO-huCD112 cells) were generated by transfection of the pCHO1.0 vector (purchased from Invitrogen) with cDNA encoding human CD112 cloned into the multiple cloning site (MCS), followed by pressure screening. The CHO-huCD112 cells were expanded and adjusted to a cell density of 2×10^6 cells/mL, added to a 96-well flow plate at 100 μL/well, and centrifuged for later use. The purified monoclonal antibody was gradiently diluted with PBS and the diluted sample was added to a 96-well flow plate at 60 μL/well. […] The above incubated samples were added at 100 μL/well to the 96-well flow plate containing CHO-huCD112 cells, incubated at 4° C. for 30 min and washed twice with PBS. APC-conjugated goat anti-mouse IgG antibody diluted 100-fold with PBS was added at 100 μL/well, incubated at 4° C. for 30 minutes and washed twice with PBS. Cells were resuspended with PBS at 100 μL/well, and detected on a CytoFlex flow cytometer, and the corresponding MFI was calculated.

In assay [7] the target is T2, cynomolgus monkey PVRIG-Fc protein. In words: BLI (ForteBio), PVRIG-Fc on AHQ sensor, 100 nM Fab in solution, monovalent, 1:1 model. As to the method: as §1
(§4) The antigen-loaded sensor was incubated in 100 nM Fab solution to the plateau phase, and then the sensor was transferred to an analysis buffer and incubated for at least 2 minutes for measuring dissociation rate. The kinetic analysis was performed using a 1:1 binding model.

In assay [8] the target is T7, human PVRIG-Fc protein (human, UniProt Q6DKI7 41-171).
T7 construct: also called PVRIG-Fc antigen (human); not shown: Fc part
T7 sequence: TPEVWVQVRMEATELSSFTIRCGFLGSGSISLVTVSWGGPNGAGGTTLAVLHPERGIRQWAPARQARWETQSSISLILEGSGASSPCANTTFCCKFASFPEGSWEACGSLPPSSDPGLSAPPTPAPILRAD
The assay is described as above. The procedure:
as §1, §4

Assay [9] concerns the target T3, mouse PVRIG-Fc protein. Kind of assay: BLI (ForteBio), IgG on AHQ sensor, 100 nM PVRIG-Fc in solution, bivalent, 1:1 model. As to the method:
as §1, §2

B1: ADI-56145 (antibody, V domains shown)
VH: QVQLVQSGAEVKKPGASVKVSCKASGYTFTSYGISWVRQAPGQGLEWVGWISSYDASTKYSQELQGRVTMTTDTSTSTAYMELRSLRSEDTAVYYCARGSPIYEHFNWFDPWGQGTLVTVSS
VL: EIVLTQSPATLSLSPGERATLSCRASQSVSSYLAWYQQKPGQAPRLLIYDSSNRATGIPARFSGSGSGTDFTLTISSLEPEDFAVYYCQQLSHHPLTFGGGTKVEIK
notes: Full-length IgG secreted by yeast and purified on Protein A; also called anti-PVRIG antibody ADI-56145 (full-length IgG obtained from Adimab)
Regarding B1, the Kd came out at 2.04 nM in [1] and 0.623 nM in [2]. Moreover, in assay [3], the binding result is listed as “no binding (tested: 100 nM)”.

B2: ADI-56145-G1LALA (antibody, human IgG1, kappa, L234A L235A, V domains shown)
VH: QVQLVQSGAEVKKPGASVKVSCKASGYTFTSYGISWVRQAPGQGLEWVGWISSYDASTKYSQELQGRVTMTTDTSTSTAYMELRSLRSEDTAVYYCARGSPIYEHFNWFDPWGQGTLVTVSS
VL: EIVLTQSPATLSLSPGERATLSCRASQSVSSYLAWYQQKPGQAPRLLIYDSSNRATGIPARFSGSGSGTDFTLTISSLEPEDFAVYYCQQLSHHPLTFGGGTKVEIKR
Take B2: the EC50 in assay [4] was determined as 2.29 nM; in [5], 37.6 nM. Also, in [6], the 50% inhibitory concentration (IC50) came to 1.36 nM.

B3: ADI-56145 Fab fragment (Fab, V domains shown)
VH: QVQLVQSGAEVKKPGASVKVSCKASGYTFTSYGISWVRQAPGQGLEWVGWISSYDASTKYSQELQGRVTMTTDTSTSTAYMELRSLRSEDTAVYYCARGSPIYEHFNWFDPWGQGTLVTVSS
VL: EIVLTQSPATLSLSPGERATLSCRASQSVSSYLAWYQQKPGQAPRLLIYDSSNRATGIPARFSGSGSGTDFTLTISSLEPEDFAVYYCQQLSHHPLTFGGGTKVEIK
notes: Fab made by papain digestion of the yeast full-length IgG, purified with Kappa Select; also called Fab of ADI-56145
As for B3, the Kd in [7] is 157 nM; in assay [8] it was 0.758 nM.

B4: ADI-56204 Fab fragment (Fab, V domains shown)
VH: QVQLVQSGAEVKKPGASVKVSCKASGYTFTHYGIYWVRQAPGQGLEWMGHIYAYSGDTDYAQKLQGRVTMTTDTSTSTAYMELRSLRSDDTAVYYCARGSPTYEHFNWFDPWGQGTLVTVSS
VL: DIQMTQSPSSLSASVGDRVTITCQASDDISDYLNWYQQKPGKAPKLLIYDASSLHTGVPSRFSGSGSGTDFTFTISSLQPEDIATYYCQQYGNLPITFGGGTKVEIK
notes: Fab made by papain digestion of the yeast full-length IgG, purified with Kappa Select
Consider B4, for which the values for the Kd in assay [7] and in assay [8] were 14.8 nM and 0.383 nM, respectively.

B5: ADI-56204 (antibody, V domains shown)
VH: QVQLVQSGAEVKKPGASVKVSCKASGYTFTHYGIYWVRQAPGQGLEWMGHIYAYSGDTDYAQKLQGRVTMTTDTSTSTAYMELRSLRSDDTAVYYCARGSPTYEHFNWFDPWGQGTLVTVSS
VL: DIQMTQSPSSLSASVGDRVTITCQASDDISDYLNWYQQKPGKAPKLLIYDASSLHTGVPSRFSGSGSGTDFTFTISSLQPEDIATYYCQQYGNLPITFGGGTKVEIK
notes: Full-length IgG secreted by yeast and purified on Protein A
On to B5, for which the Kd in assay [1] was determined as 0.425 nM; in assay [2], 0.197 nM. The binding result in [3] was “no binding (tested: 100 nM)”.

B6: ADI-56249 (antibody, V domains shown)
VH: QVQLVQSGAEVKKPGSSVKVSCKASGGTFSTFAISWVRQAPGQGLEWMGDIIPIFGSNYAQKFQGRVTITADESTSTAYMELSSLRSEDTAVYYCARGPLEGKVSPFDIWGQGTMVTVSS
VL: DIVMTQSPLSLPVTPGEPASISCRSSQSLLHSTGYNYLDWYLQKPGQSPQLLIYVGSTRASGVPDRFSGSGSGTDFTLKISRVEAEDVGVYYCMQERQFPITFGGGTKVEIK
notes: as for B5
Consider B6, for which the Kd was found to be 0.872 nM in assay [1], 0.244 nM in assay [2] and 2.62 nM in assay [9].

B7: ADI-56249 Fab fragment (Fab, V domains shown)
VH: QVQLVQSGAEVKKPGSSVKVSCKASGGTFSTFAISWVRQAPGQGLEWMGDIIPIFGSNYAQKFQGRVTITADESTSTAYMELSSLRSEDTAVYYCARGPLEGKVSPFDIWGQGTMVTVSS
VL: DIVMTQSPLSLPVTPGEPASISCRSSQSLLHSTGYNYLDWYLQKPGQSPQLLIYVGSTRASGVPDRFSGSGSGTDFTLKISRVEAEDVGVYYCMQERQFPITFGGGTKVEIK
notes: as for B4
On to B7, for which the Kd worked out at 21.2 nM in assay [7] and 0.263 nM in [8].

B8: ADI-56127 (antibody, V domains shown)
VH: QVQLVQSGAEVKKPGSSVKVSCKASGGTESVDAISWVRQAPGQGLEWMGDIIPFFDTDYAQKFQGRVTITADESTSTAYMELSSLRSEDTAVYYCAREGGTSWTHFFDLWGRGTLVTVSS
VL: not shown
notes: as for B5
For B8, the Kd in assay [1] was found to be 0.364 nM; in [2] it was 0.181 nM; in [9] it was 1.66 nM.
